Test results: the supplement of paper PMC7125110
± gives the standard error. This sample holds only a part of the variants without activity.

B1: glmS ribozyme (parent)
chain: AUAAAAGCGCCAGAACUACAGAAAUGUAGUUGACGAGGAGGAGGUUUAUCGAAUUUUCGGCGGAUGCCUCCAAA

Experiments:
Conditions in all cases: with glucosamine-6-phosphate
glucosamine-6-phosphate [1] = variants of: B1; assay: self-cleavage kobs at 640 uM GlcN6P; higher = faster cleavage; RNA array
How it was run: (§1)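 In situ transcription by E. coli RNA polymerase produced barcoded ribozyme variants on sequenced MiSeq chips, and a hybridised Cy3 probe tracked them at 37 °C. Glucosamine-6-phosphate was flowed in at 40 μM to 10 mM in HEPES/KCl/Mg(OAc)2 buffer. kcat and KM were taken from weighted Michaelis–Menten fits of kobs values from exponential decay fits.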

glucosamine-6-phosphate [2] = variants of: B1; assay: self-cleavage kobs at 2500 uM GlcN6P; higher = faster cleavage; RNA array
How it was run: as §1

glucosamine-6-phosphate [3] = variants of: B1; assay: self-cleavage kobs at 10000 uM GlcN6P; higher = faster cleavage; RNA array
How it was run: as §1

## AUAAAAGCGCCCGCACUACAGAAAUGUAGUGGACGAGGAGGAGGUUUAUCGAAUUUUCGGCGGAUGCCUCCAAA [A12C A14C U31G]
glucosamine-6-phosphate [1]
  self-cleavage kobs at 640 uM GlcN6P: 0.00206 ± 0.00061 s⁻¹
glucosamine-6-phosphate [2]
  self-cleavage kobs at 2500 uM GlcN6P: 0.00423 ± 0.0015 s⁻¹

## AUAAAAGCGCCAGAACUACAGAAAUGUAGCUUACGAGGAGGAGGUUUAUCGAAUUUUCGGCGGGUGCCUCCAAA [U30C G32U A64G]
glucosamine-6-phosphate [1]
  self-cleavage kobs at 640 uM GlcN6P: 7.24e-05 ± 2.3e-05 s⁻¹
glucosamine-6-phosphate [2]
  self-cleavage kobs at 2500 uM GlcN6P: 0.000195 ± 5.7e-05 s⁻¹

## AUAAAAGCGCCACAACUACAGAAAUGUAUUUGACGAGGAGUAGGUUUAUCGAAUUUUCGGCGGAUGCAUACAAA [G13C G29U G41U C68A C70A]
glucosamine-6-phosphate [1]
  self-cleavage kobs at 640 uM GlcN6P: < 1e-05 s⁻¹

## AUAAAAGCGCCAGAACUACAGAAAUGUAGUUGACGAGGAGGAGGUUUAUCGAAUUUUGGGCGGACGCCUCCAAA [C58G U65C]
glucosamine-6-phosphate [1]
  self-cleavage kobs at 640 uM GlcN6P: < 1e-05 s⁻¹
glucosamine-6-phosphate [2]
  self-cleavage kobs at 2500 uM GlcN6P: < 1e-05 s⁻¹

## AUAAAAGCGUCAGAACUACAGAAAUGUAGAUGUCGAGGAGGAGGUUUAUCGAAUUUUCGGCGGAUGCCUCCAAA [C10U U30A A33U]
glucosamine-6-phosphate [1]
  self-cleavage kobs at 640 uM GlcN6P: < 1e-05 s⁻¹

## AUAAAAGCGCAAGAACUACAGAAAUGUAGGUUACGAGGAGGAGAUUUAUCGAAUUUUCGGCGGAUACCUCCAAA [C11A U30G G32U G44A G66A]
glucosamine-6-phosphate [1]
  self-cleavage kobs at 640 uM GlcN6P: < 1e-05 s⁻¹
glucosamine-6-phosphate [2]
  self-cleavage kobs at 2500 uM GlcN6P: < 1e-05 s⁻¹

## AUAAAAGCGCCAGAACUACAGAAAUGUAGUUGAUGAGGAGGAGGUUUAUCGAAUCUUCGGCGGAUGUCUCCAAA [C34U U55C C67U]
glucosamine-6-phosphate [1]
  self-cleavage kobs at 640 uM GlcN6P: < 1e-05 s⁻¹

## AUAAAAGCGCCAGUAAUACAGAAAUGUAAUUGACGAGGAGGAGGUUUAUCGAAUUUUCGGCGGAUGCCUCCAAA [A14U C16A G29A]
glucosamine-6-phosphate [1]
  self-cleavage kobs at 640 uM GlcN6P: 8.7e-05 ± 2.4e-05 s⁻¹

## AUAAAAGCGCCAGAACUACAGAAAUGUAUUUUACGAGAAGGAGGUUUAUCGAAUUUUCGGAGGAUGUCUCCAAA [G29U G32U G38A C61A C67U]
glucosamine-6-phosphate [1]
  self-cleavage kobs at 640 uM GlcN6P: 0.000133 ± 3.8e-05 s⁻¹
glucosamine-6-phosphate [2]
  self-cleavage kobs at 2500 uM GlcN6P: 0.00034 ± 9.8e-05 s⁻¹

## AUAAAUGCGCCAGAACUACAGAAAUGUAGUUGACGAGGAGGAGGUUUAUCGAAAUUUCGGCGGAUGCCUCCAAA [A6U U54A]
glucosamine-6-phosphate [1]
  self-cleavage kobs at 640 uM GlcN6P: 9.76e-05 ± 2e-05 s⁻¹
glucosamine-6-phosphate [2]
  self-cleavage kobs at 2500 uM GlcN6P: 0.000837 ± 0.00027 s⁻¹
glucosamine-6-phosphate [3]
  self-cleavage kobs at 10000 uM GlcN6P: 0.000256 ± 4.4e-05 s⁻¹

## AUAAAAGCGCCAGUACUACAGAAAUGUAGUUGACGAGGAAGAGGUUUAUCGAAUUGCCGGCGGAUGCCUCCAAA [A14U G40A U56G U57C]
glucosamine-6-phosphate [1]
  self-cleavage kobs at 640 uM GlcN6P: < 1e-05 s⁻¹
glucosamine-6-phosphate [2]
  self-cleavage kobs at 2500 uM GlcN6P: < 1e-05 s⁻¹

## AUAAAAGCGCCAUAACUACAGAAAUGUAGUUGACGAGGAGGAGGUUUAUAGAAUUUUCGGCGGAUGCCGCCAAA [G13U C50A U69G]
glucosamine-6-phosphate [1]
  self-cleavage kobs at 640 uM GlcN6P: 0.000105 ± 3.4e-05 s⁻¹
glucosamine-6-phosphate [2]
  self-cleavage kobs at 2500 uM GlcN6P: 5.37e-05 ± 1.8e-05 s⁻¹

## AUAAAAGCGCCAGAACUACAGAAAUGUAGUUGACGAGUAGAAGGUGUAGCGAAUUUUCGGCGGAUGCCUCCAAA [G38U G41A U46G U49G]
glucosamine-6-phosphate [1]
  self-cleavage kobs at 640 uM GlcN6P: < 1e-05 s⁻¹
glucosamine-6-phosphate [3]
  self-cleavage kobs at 10000 uM GlcN6P: < 1e-05 s⁻¹

## AUAAAAGCGCCUGAACUACAGAAAUGUAGUUUACGAGGAGAAGGUUUAUCGAAUUAUCGGCGGUAGCCUCCAAA [A12U G32U G41A U56A A64U U65A]
glucosamine-6-phosphate [1]
  self-cleavage kobs at 640 uM GlcN6P: < 1e-05 s⁻¹
glucosamine-6-phosphate [2]
  self-cleavage kobs at 2500 uM GlcN6P: < 1e-05 s⁻¹

## AUAAAAGCGCCAGAACUACAGAAAUGUAGUAGACGAGGAGGAGGUUUAUCGAAUUUUCGGCGGAUGCCUACAAA [U31A C70A]
glucosamine-6-phosphate [2]
  self-cleavage kobs at 2500 uM GlcN6P: 5.68e-05 ± 1.7e-05 s⁻¹
glucosamine-6-phosphate [3]
  self-cleavage kobs at 10000 uM GlcN6P: 0.000146 ± 3e-05 s⁻¹

## AUAAAAGCGCUAGAAAUACAGAAAUGUAGUUGACGAGGAGGAGGUUUAUCGAAUUGUCGGCGGAUGCCUCCAAA [C11U C16A U56G]
glucosamine-6-phosphate [2]
  self-cleavage kobs at 2500 uM GlcN6P: 0.000124 ± 4.3e-05 s⁻¹

## AUAAAAGCGCCAGAACUACAGAAAUGUAGCUGACGAGGAGGAGGUUUAUCGAAUUUUGGGCGGAUGCUUCCAAA [U30C C58G C68U]
glucosamine-6-phosphate [2]
  self-cleavage kobs at 2500 uM GlcN6P: 0.000104 ± 2.9e-05 s⁻¹

## AUAAAAGCGCCAGAACUACAGAAAUGUAGUUAACGAGGAGUAGGUUUAUUGAAUUAUCGGCUGAUGCCUCCAAA [G32A G41U C50U U56A G62U]
glucosamine-6-phosphate [2]
  self-cleavage kobs at 2500 uM GlcN6P: < 1e-05 s⁻¹
glucosamine-6-phosphate [3]
  self-cleavage kobs at 10000 uM GlcN6P: < 1e-05 s⁻¹

## AUAAAACCGCCAGAACUACAGAAAUGUAGUUUACGAGGAGGAGGCUUACCGAAUUUUCGGCGGAUGCCUCCAAA [G7C G32U U45C U49C]
glucosamine-6-phosphate [2]
  self-cleavage kobs at 2500 uM GlcN6P: < 1e-05 s⁻¹

## AUAAAAGGGCCUGAAUUACAGAAAUGUAGUUGACGAGGAGGAUGUUUAUCGAAUUUUCGGCGGAUGCCUCCAAA [C8G A12U C16U G43U]
glucosamine-6-phosphate [2]
  self-cleavage kobs at 2500 uM GlcN6P: < 1e-05 s⁻¹

## AUAAAAGCGCCAGAACUACAGAAAUGUAGUUGCCGUGCAGGAGGUUUAUCGAAUUUUCGGCGGAUGCCUCCAAA [A33C A36U G38C]
glucosamine-6-phosphate [2]
  self-cleavage kobs at 2500 uM GlcN6P: < 1e-05 s⁻¹

## AUAAAAGCGCCAGAUCUACAGAAAUGUAGUUGACGAAGAGGAGGUUUAUCGAAUUUUCGGCGGAUCCCUCCAAA [A15U G37A G66C]
glucosamine-6-phosphate [2]
  self-cleavage kobs at 2500 uM GlcN6P: 7.17e-05 ± 1.8e-05 s⁻¹

## AUAAAAGCGCCAGAACUACAGAAAUGUAGUUGACGAGGAGGAAGUUUAUCGAGUUUUCGUCGGAUGCCUUCAAA [G43A A53G G60U C70U]
glucosamine-6-phosphate [2]
  self-cleavage kobs at 2500 uM GlcN6P: < 1e-05 s⁻¹

## AUAAAGGCGCCAGAACUACAGAAAUGUAGUUGACGAGGAGGAGGUUUGUCGAAUUUUCGGCGGAUGCCUCAAAA [A6G A48G C71A]
glucosamine-6-phosphate [2]
  self-cleavage kobs at 2500 uM GlcN6P: < 1e-05 s⁻¹
